In the Immune Epitope Database (IEDB) one finds IC50 data, which are given here for 23 sequences.

One test deals with HLA-A*02:03. Nature of the test: IEDB peptide-MHC binding, purified MHC/competitive/radioactivity; ≥ and ≤ were set here for values at or beyond the usual limits of such assays.
Test [1] concerns the target HLA-A*02:02. The test is described as above.
For test [2], the target named is HLA-A*02:01. Kind of test: IEDB peptide-MHC binding, cellular MHC/competitive/fluorescence; ≥ and ≤ were set here for values at or beyond the usual limits of such assays.
In test [3] the target is HLA-A*68:02. Described as above.
Test [4] has as its target HLA-A*02:06. Described as above.
Test [5] concerns the target HLA-A*68:02. Kind of test: IEDB peptide-MHC binding, purified MHC/competitive/radioactivity; ≥ and ≤ were set here for values at or beyond the usual limits of such assays. The conditions noted are these: source organism: Vaccinia virus WR.
The target in test [6] is HLA-A*02:06. Described as above. The conditions noted are these: source organism: Vaccinia virus WR.
Test [7] addresses HLA-A*02:02. Kind of test: IEDB peptide-MHC binding, cellular MHC/competitive/fluorescence; ≥ and ≤ were set here for values at or beyond the usual limits of such assays. The conditions noted are these: source organism: Vaccinia virus WR.
Test [8] addresses HLA-A*02:01. Kind of test: IEDB peptide-MHC binding, purified MHC/competitive/radioactivity; ≥ and ≤ were set here for values at or beyond the usual limits of such assays.
The mark [9] stands for this setting: source organism: Vaccinia virus WR.
The mark [10] stands for this setting: source organism: Influenza A virus.
[11] abbreviates: source organism: Hepacivirus hominis.

By IC50 is commonly meant the point on the concentration scale where inhibition reaches its midpoint.

As for NLYISDYKML, the 50% inhibitory concentration (IC50) was determined as 1.83 µM in the test with HLA-A*02:03 (setting [9]); 1.25 µM in the test with HLA-A*02:02 [1] (setting [9]); 7.88 µM with HLA-A*02:01 [2] (setting [9]); 30.9 µM with HLA-A*68:02 [3] (setting [9]); 35.9 µM with HLA-A*02:06 [4] (setting [9]).

NMKPNFWSRI: the half-inhibitory concentration (IC50) was determined as 0.193 µM in the test with HLA-A*02:03 (setting [9]); 1.68 µM with HLA-A*02:02 [1] (setting [9]); 23.4 µM in the test with HLA-A*02:01 [2] (setting [9]); 13.1 µM with HLA-A*68:02 [3] (setting [9]); 13.9 µM with HLA-A*02:06 [4] (setting [9]).

With NTFVNFNSV, the half-maximal inhibitory concentration (IC50) with HLA-A*68:02 [5] worked out at 0.0058 µM; with HLA-A*02:06 [6], 0.00035 µM; in the test with HLA-A*02:03 (setting [9]), 0.1 µM; in the test with HLA-A*02:02 [7], 5.02 µM.

NVKSKLLWFL: the 50% inhibitory concentration (IC50) with HLA-A*02:03 (setting [9]) stood at 0.633 µM; with HLA-A*02:02 [1] (setting [9]) it was 2.29 µM; in the test with HLA-A*02:01 [2] (setting [9]), 33.2 µM; with HLA-A*68:02 [3] (setting [9]), 7.3 µM; with HLA-A*02:06 [4] (setting [9]) it was 31.1 µM.

For PASKKESVI, the half-inhibitory concentration (IC50) with HLA-A*02:03 (setting [9]) was 1.76 µM; in the test with HLA-A*02:02 [1] (setting [9]), 1.35 µM; with HLA-A*02:01 [2] (setting [9]) it was 18.8 µM; in the test with HLA-A*68:02 [3] (setting [9]), at least 70 µM; with HLA-A*02:06 [4] (setting [9]) it was 10.3 µM.

For PLSINVSGV, the IC50 was determined as 0.045 µM with HLA-A*02:03 (setting [9]); 1.12 µM in the test with HLA-A*02:02 [1] (setting [9]); 6.54 µM with HLA-A*02:01 [2] (setting [9]); 22.5 µM with HLA-A*68:02 [3] (setting [9]); 17.9 µM in the test with HLA-A*02:06 [4] (setting [9]).

As for RILSEKRKDT, the half-maximal inhibitory concentration (IC50) was 4.16 µM in the test with HLA-A*02:03 (setting [9]); 0.711 µM with HLA-A*02:02 [1] (setting [9]); 48.7 µM with HLA-A*02:01 [2] (setting [9]); 10 µM with HLA-A*68:02 [3] (setting [9]); 6.87 µM with HLA-A*02:06 [4] (setting [9]).

On to RLRQDTEDIV, for which the half-maximal inhibitory concentration (IC50) with HLA-A*02:03 (setting [9]) turned out to be 0.284 µM; with HLA-A*02:02 [1] (setting [9]), 0.134 µM; with HLA-A*02:01 [2] (setting [9]) it was 5.95 µM; with HLA-A*68:02 [3] (setting [9]), 35.5 µM; in the test with HLA-A*02:06 [4] (setting [9]), 7.49 µM.

In the case of RLTILGKDA, the concentration for half-maximal inhibition (IC50) with HLA-A*02:03 (setting [10]) was 3.51 µM; with HLA-A*02:02 [1] (setting [10]), 1.56 µM; in the test with HLA-A*02:01 [2] (setting [10]), 10.9 µM; in the test with HLA-A*68:02 [3] (setting [10]), at least 70 µM; with HLA-A*02:06 [4] (setting [10]) it was at least 70 µM.

On to RTLFQQMRDVL, for which the IC50 is 3.83 µM with HLA-A*02:03 (setting [10]); 1.89 µM in the test with HLA-A*02:02 [1] (setting [10]); 13.7 µM in the test with HLA-A*02:01 [2] (setting [10]); at least 70 µM in the test with HLA-A*68:02 [3] (setting [10]); at least 70 µM with HLA-A*02:06 [4] (setting [10]).

SAFDERRNKYL: the IC50 with HLA-A*02:03 (setting [10]) was 2.48 µM; with HLA-A*02:02 [1] (setting [10]) it was 1.09 µM; with HLA-A*02:01 [2] (setting [10]), 24.3 µM; with HLA-A*68:02 [3] (setting [10]), 14.1 µM; in the test with HLA-A*02:06 [4] (setting [10]), at least 70 µM.

Take SLKRFTHTT: the IC50 with HLA-A*02:03 (setting [9]) turned out to be 0.0091 µM; with HLA-A*02:02 [1] (setting [9]) it was 0.825 µM; with HLA-A*02:01 [2] (setting [9]) it was 5.66 µM; in the test with HLA-A*68:02 [3] (setting [9]), 42 µM; in the test with HLA-A*02:06 [4] (setting [9]), 59.7 µM.

Regarding SVGTGILFM, the concentration for half-maximal inhibition (IC50) with HLA-A*02:03 (setting [9]) amounted to 2.25 µM; in the test with HLA-A*02:02 [1] (setting [9]), 1.09 µM; with HLA-A*02:01 [2] (setting [9]), 5.15 µM; with HLA-A*68:02 [3] (setting [9]), 57.4 µM; in the test with HLA-A*02:06 [4] (setting [9]) it was 20.7 µM.

With SVQLSNNKYV, the IC50 with HLA-A*02:03 (setting [9]) worked out at 0.82 µM; with HLA-A*02:02 [1] (setting [9]), 1.22 µM; with HLA-A*02:01 [2] (setting [9]), 55 µM; with HLA-A*68:02 [3] (setting [9]), 11.3 µM; in the test with HLA-A*02:06 [4] (setting [9]), 8.83 µM.

For TLLNETAKVI, the IC50 with HLA-A*02:03 (setting [9]) amounted to 2.13 µM; with HLA-A*02:02 [1] (setting [9]) it was 2.86 µM; with HLA-A*02:01 [2] (setting [9]), 16.9 µM; in the test with HLA-A*68:02 [3] (setting [9]), 6.34 µM; with HLA-A*02:06 [4] (setting [9]) it was 8.54 µM.

As for TLNEYKQLYT, the half-inhibitory concentration (IC50) is 0.773 µM in the test with HLA-A*02:03 (setting [9]); 0.144 µM with HLA-A*02:02 [1] (setting [9]); 11.5 µM in the test with HLA-A*02:01 [2] (setting [9]); at least 70 µM with HLA-A*68:02 [3] (setting [9]); at least 70 µM with HLA-A*02:06 [4] (setting [9]).

Consider TTQIIKLLPFA, for which the 50% inhibitory concentration (IC50) in the test with HLA-A*02:03 (setting [10]) worked out at 3.43 µM; with HLA-A*02:02 [1] (setting [10]) it was 2.19 µM; with HLA-A*02:01 [2] (setting [10]), 5.95 µM; with HLA-A*68:02 [3] (setting [10]), 8.22 µM; in the test with HLA-A*02:06 [4] (setting [10]) it was 11.6 µM.

In the case of VADLSARNKL, the IC50 with HLA-A*02:03 (setting [9]) stood at 2.16 µM; with HLA-A*02:02 [1] (setting [9]), 1.17 µM; with HLA-A*02:01 [2] (setting [9]), 23 µM; with HLA-A*68:02 [3] (setting [9]), 7.04 µM; in the test with HLA-A*02:06 [4] (setting [9]) it was 35.9 µM.

Regarding WLTPFEKEFT, the 50% inhibitory concentration (IC50) in the test with HLA-A*02:03 (setting [9]) is 1.55 µM; with HLA-A*02:02 [1] (setting [9]), 2.37 µM; with HLA-A*02:01 [2] (setting [9]), 15.7 µM; in the test with HLA-A*68:02 [3] (setting [9]), at least 70 µM; in the test with HLA-A*02:06 [4] (setting [9]), 30.8 µM.

Regarding YIENTNQGNI, the IC50 with HLA-A*02:03 (setting [9]) is 0.582 µM; in the test with HLA-A*02:02 [1] (setting [9]) it was 1.22 µM; with HLA-A*02:01 [2] (setting [9]) it was 34.5 µM; with HLA-A*68:02 [3] (setting [9]), 42 µM; with HLA-A*02:06 [4] (setting [9]) it was 6.2 µM.

As for YIRRNMINKL, the half-maximal inhibitory concentration (IC50) turned out to be 3.8 µM with HLA-A*02:01 [8] (setting [9]); 0.07 µM with HLA-A*02:03 (setting [9]); 0.82 µM with HLA-A*02:02 [1] (setting [9]); 13.7 µM in the test with HLA-A*68:02 [3] (setting [9]); 8.67 µM in the test with HLA-A*02:06 [4] (setting [9]).

YLSKEDRII: the half-maximal inhibitory concentration (IC50) with HLA-A*02:01 [8] (setting [9]) is 1.5 µM; with HLA-A*02:03 (setting [9]), 0.435 µM; in the test with HLA-A*02:02 [1] (setting [9]) it was 0.305 µM; with HLA-A*68:02 [3] (setting [9]), at least 70 µM; with HLA-A*02:06 [4] (setting [9]), 10.5 µM.

Turning to YVLLLFLLLA, the concentration for half-maximal inhibition (IC50) with HLA-A*02:01 [8] (setting [11]) stood at 0.866 µM; with HLA-A*02:03 (setting [11]), 0.727 µM; in the test with HLA-A*02:02 [1] (setting [11]), 1.05 µM; with HLA-A*68:02 [3] (setting [11]) it was 12 µM; with HLA-A*02:06 [4] (setting [11]), 5.9 µM.
